This is an account of results in patent US20140056895 (published 2014).

Where two headings read alike, the source gives them in different places.

Assay [1] concerns the target T1, IL13 (human, UniProt P35225).
Assay [2] has as its target T2, IL4 (human, UniProt P05112).
T2 chain: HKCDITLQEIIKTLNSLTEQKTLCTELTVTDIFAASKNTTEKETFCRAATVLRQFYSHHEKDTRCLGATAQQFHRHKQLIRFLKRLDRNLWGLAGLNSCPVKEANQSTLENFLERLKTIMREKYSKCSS

For assay [3], the target named is T1, IL13. In words: SPR. (In SPR one partner is held on a chip, and binding of the other changes the refractive index at the surface.)
Assay [4] addresses T1, IL13. Description: SPR. The source holds these as a separate data set.

The term Kd denotes the concentration at which binding is half-saturated. The low end stands for tighter binding, the high end for weaker binding.

T1 sequence (P35225 35-146): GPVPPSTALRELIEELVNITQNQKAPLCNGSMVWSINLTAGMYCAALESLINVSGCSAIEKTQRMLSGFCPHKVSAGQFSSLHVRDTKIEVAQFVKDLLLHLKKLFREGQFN

B1: Cross-over IL4(G4S2)IL13CH1-Fc / IL13(G4S2)IL4CL (antibody)
chain 1: not shown
chain 2: DIVLTQSPASLAVSLGQRATISCRASESVDSYGQSYMHWYQQKAGQPPKLLIYLASNLESGVPARFSGSGSRTDFTLTIDPVQAEDAATYYCQQNAEDSRTFGGGTKLEIKGGGGSGGGGSDIQMTQSPASLSVSVGDTITLTCHASQNIDVWLSWFQQKPGNIPKLLIYKASNLHTGVPSRFSGSGSGTGFTLTISSLQPEDIATYYCQQAHSYPFTFGGGTKLEIKRTVAAPSVFIFPPSDEQLKSGTASVVCLLNNFYPREAKVQWKVDNALQSGNSQESVTEQDSKDSTYSLSSTLTLSKADYEKHKVYACEVTHQGLSSPVTKSFNRGEC
With B1, the binding result in assay [1] and in assay [2] was “no binding” in each case.

B2: CODV-Ig heavy-chain template (batches 201-270, 501-508, 704, 801), IL13 arm (antibody, V domains shown)
VH: EVQLKESGPGLVAPGGSLSITCTVSGFSLTDSSINWVRQPPGKGLEWLGMIWGDGRIDYADALKSRLSISKDSSKSQVFLEMTSLRTDDTATYYCARDGYFPYAMDFWGQGTSVTVSS
VL: DIVLTQSPASLAVSLGQRATISCRASESVDSYGQSYMHWYQQKAGQPPKLLIYLASNLESGVPARFSGSGSRTDFTLTIDPVQAEDAATYYCQQNAEDSRTFGGGTKLEIK
Consider B2, for which the Kd in assay [3] and in assay [4] was 0.025 nM each time.
